{
  "source": "paper doi:10.1101/2020.06.22.166298",
  "target": "MBP-FhtR (Faecalis heme transport Regulator fused to the maltose binding protein) (Enterococcus faecalis OG1RF)",
  "experiment": "SEC",
  "data": [
    {"substance": "MBP-FhtR (Faecalis heme transport Regulator fused to the maltose binding protein) (natural protein)", "values": [
      {"measurement": "stoichiometry N", "result": 2}
    ]}
  ]
}
